# In PMC5030094, “Human DNA2 possesses a cryptic DNA unwinding activity that functionally integrates with BLM or WRN helicases”:
# T1: hDNA2 D277A (nuclease-deficient) (Homo sapiens, UniProt P51530 1-1060, D277A)
# T1 sequence: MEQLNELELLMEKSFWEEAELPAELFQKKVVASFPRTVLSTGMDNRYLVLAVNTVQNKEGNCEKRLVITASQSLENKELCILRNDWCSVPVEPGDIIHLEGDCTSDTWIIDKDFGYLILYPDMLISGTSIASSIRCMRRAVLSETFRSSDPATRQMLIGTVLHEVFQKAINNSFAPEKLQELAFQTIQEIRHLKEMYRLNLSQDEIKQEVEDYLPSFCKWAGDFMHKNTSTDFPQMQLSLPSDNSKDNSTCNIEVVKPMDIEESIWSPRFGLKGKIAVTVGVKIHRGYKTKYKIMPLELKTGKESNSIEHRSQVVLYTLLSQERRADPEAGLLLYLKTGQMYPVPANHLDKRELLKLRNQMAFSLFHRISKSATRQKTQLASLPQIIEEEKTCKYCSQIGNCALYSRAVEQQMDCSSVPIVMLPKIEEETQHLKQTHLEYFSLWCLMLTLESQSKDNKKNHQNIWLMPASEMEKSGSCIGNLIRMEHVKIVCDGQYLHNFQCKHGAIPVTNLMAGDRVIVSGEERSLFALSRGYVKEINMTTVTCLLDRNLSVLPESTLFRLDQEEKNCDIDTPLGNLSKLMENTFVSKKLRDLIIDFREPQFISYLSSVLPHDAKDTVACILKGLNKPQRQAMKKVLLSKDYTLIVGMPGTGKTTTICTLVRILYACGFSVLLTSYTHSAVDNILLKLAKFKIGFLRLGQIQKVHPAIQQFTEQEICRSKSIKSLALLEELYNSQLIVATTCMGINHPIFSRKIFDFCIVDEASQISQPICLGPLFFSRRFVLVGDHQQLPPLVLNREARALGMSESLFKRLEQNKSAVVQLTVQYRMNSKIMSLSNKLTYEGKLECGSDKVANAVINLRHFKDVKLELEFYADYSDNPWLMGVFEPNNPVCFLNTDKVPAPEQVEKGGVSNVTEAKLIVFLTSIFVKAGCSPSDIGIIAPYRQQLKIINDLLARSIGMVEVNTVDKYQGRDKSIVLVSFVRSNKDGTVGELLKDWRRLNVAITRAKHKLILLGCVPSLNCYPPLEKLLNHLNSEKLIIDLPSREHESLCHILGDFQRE
# B1: ssDNA 50 nt (X12-3) (ssDNA)
# DNA: GACGTCATAGACGATTACATTGCTAGGACATGCTGTCTAGAGACTATCGC
# Molecular target: T1, hDNA2 D277A (nuclease-deficient)
# Experiment: EMSA; no RPA; 25 mM Tris-acetate pH 7.5, 2 mM Mg acetate, 1 mM DTT, 0.1 mg/ml BSA, 1 nM DNA, 37 C 30 min; 6% PAGE in TAE on ice
# Conditions: protein: recombinant; tags: N-terminal 6xHis, C-terminal FLAG; label: 5' 32P; single strand
binder,measurement,value
B1,Kd,~2 nM
